No end group written: not given here.

Results on 14 molecules are retold here after paper PMC11098746 (2024).

B1: ADP102 (protein)
chain: MARGAALALLLFGLLGVLVAAPDGGFDLSDALPDNENKKPTAIPKKPSAGDDFDLGDAVVDGENDDPRPPNPPKPMPNPNPNHPSSSGSFSDADLADGVSGGEGKGGSDGGGSHRKEGEEADAP
modifications: bait human Fc-tagged dimer
B2: ADP101 (protein)
chain: MWSTRSPNSTAWPLSLEPDPGMASASTTMHTTTIAEPDPGMSGWPDGRMETSTPTIMD
modifications: also: human Fc-tagged dimer
B3: ADP309 (protein)
chain: MEAPAAGLFLLLLLGTWAPAPGSASSEAPPLINEDVKRTVDLSSHLAKVTAEVVLAHLGGGSTSRATSFLLALEPELEARLAHLGVQVKGEDEEENNLEVRETKIKGKSGRFFTVKLPVALDPGAKISVIVETVYTHVLHPYPTQITQSEKQFVVFEGNHYFYSPYPTKTQTMRVKLASRNVESYTKLGNPTRSEDLLDYGPFRDVPAYSQDTFKVHYENNSPFLTITSMTRVIEVSHWGNIAVEENVDLKHTGAVLKGPFSRYDYQRQPDSGISSIRSFKTILPAAAQDVYYRDEIGNVSTSHLLILDDSVEMEIRPRFPLFGGWKTHYIVGYNLPSYEYLYNLGDQYALKMRFVDHVFDEQVIDSLTVKIILPEGAKNIEIDSPYEISRAPDELHYTYLDTFGRPVIVAYKKNLVEQHIQDIVVHYTFNKVLMLQE
modifications: bait human Fc-tagged dimer
B4: ADP288 (protein)
chain: MDHSHHMGMSYMDSNSTMQPSHHHPTTSASHSHGGGDSSMMMMPMTFYFGFKNVELLFSGL
modifications: also: human Fc-tagged dimer
B5: ADP285 (protein)
chain: LTQGYNNWTNGLYGYSWDMMVHSRSHQHVKITYRDGRTGELGYLNPGVFTQSRRWKDHADMLKQYATCLSRLLPKYNVTEPQIYFDIWVSINDRFQQRIFDPRVDIVQAAWSPFQRTSWVQPLLMDLSPWRAKLQEIKSSLDNHTEVVFIADFPGLHLENFVSEDLGNTSIQLLQGEVTVELVAEQKNQTLREGEKMQLPAGEYHKVYTTSPSPSCYMYVYVNTTELALEQDLAYLQELKEKVENGSETGPLPPELQPLLEGEVKGGPEPTPLVQTFLRRQQRLQEIERRRNTPFHERFFRFLLRKLYVFRRSFLMTCISLRNLILGRPSLEQLAQEVTYANLRPFEAVGELNPSNTDSSHSNPPESNPDPVHSEF
modifications: bait human Fc-tagged dimer
B6: ADP301 (protein)
chain: MAKLIALTLLGMGLALFRNHQSSYQTRLNALREVQPVELPNCNLVKGIETGSEDLEILPNGLAFISSGLKYPGIKSFNPNSPGKILLMDLNEEDPTVLELGITGSKFDVSSFNPHGISTFTDEDNAMYLLVVNHPDAKSTVELFKFQEEEKSLLHLKTIRHKLLPNLNDIVAVGPEHFYGTNDHYFLDPYLQSWEMYLGLAWSYVVYYSPSEVRVVAEGFDFANGINISPDGKYVYIAELLAHKIHVYEKHANWTLTPLKSLDFNTLVDNISVDPETGDLWVGCHPNGMKIFFYDSENPPASEVLRIQNILTEEPKVTQVYAENGTVLQGSTVASVYKGKLLIGTVFHKALYCEL
modifications: bait human Fc-tagged dimer
B7: ADP142 (protein)
chain: MGLGARGAWAALLLGTLQVLALLGAAHESAAMAASANIENSGLPHNSSANSTETLQHVPSDHTNETSNSTVKPPTSVASDSSNTTVTTMKPTAASNTTTPGMVSTNMTSTTLKSTPKTTSVSQNTSQISTSTMTVTHNSSVTSAASSVTITTTMHSEAKKGSKFDTGS
modifications: bait human Fc-tagged dimer
B8: ADP366 (protein)
chain: MESKGASSCRLLFCLLISATVFRPGLGWYTVNSAYGDTIIIPCRLDVPQNLMFGKWKYEKPDGSPVFIAFRSSTKKSVQYDDVPEYKDRLNLSENYTLSISNARISDEKRFVCMLVTEDNVFEAPTIVKVFKQPSKPEIVSKALFLETEQLKKLGDCISEDSYPDGNITWYRNGKVLHPLEGAVVIIFKKEMDPVTQLYTMTSTLEYKTTKADIQMPFTCSVTYYGPSGQKTIHSEQAVFDIYYPTEQVTIQVLPPKNAIKEGDNITLKCLGNGNPPPEEFLFYLPGQPEGIRSSNTYTLTDVRRNATGDYKCSLIDKKSMIASTAITVHYLDLSLNPSGEVTRQIGDALPVSCTISASRNATVVWMKDNIRLRSSPSFSSLHYQDAGNYVCETALQEVEGLKKRESLTLIVEGKPQIKMTKKTDPSGLSKTIICHVEGFPKPAIQWTITGSGSVINQTEESPYINGRYYSKIIISPEENVTLTCTAENQLERTVNSLNVSAISIPEHDEADEISDENREKVNDQAK
modifications: bait human Fc-tagged dimer
B9: ADP329 (protein)
chain: MAPPGSSTVFLLALTIIASTWALTPTHYLTKHDVERLKASLDRPFTNLESAFYSIVGLSSLGAQVPDAKKACTYIRSNLDPSNVDSLFYAAQASQALSGCEISISNETKDLLLAAVSEDSSVTQIYHAVAALSGFGLPLASQEALSALTARLSKEETVLATVQALQTASHLSQQADLRSIVEEIEDLVARLDELGGVYLQFEEGLETTALFVAATYKLMDHVGTEPSIKEDQVIQLMNAIFSKKNFESLSEAFSVASAAAVLSHNRYHVPVVVVPEGSASDTHEQAILRLQVTNVLSQPLTQATVKLEHAKSVASRATVLQKTSFTPVGDVFELNFMNVKFSSGYYDFLVEVEGDNRYIANTVELRVKISTEVGITNVDLSTVDKDQSIAPKTTRVTYPAKAKGTFIADSHQNFALFFQLVDVNTGAELTPHQTFVRLHNQKTGQEVVFVAEPDNKNVYKFELDTSERKIEFDSASGTYTLYLIIGDATLKNPILWNVADVVIKFPEEEAPSTVLSQNLFTPKQEIQHLFREPEKRPPTV
modifications: bait human Fc-tagged dimer
B10: ADP390 (protein)
chain: GTDDATADSRKTYTLTDYLKNTYRLKLYSLRWISDHEYLYKQENNILVFNAEYGNSSVFLENSTFDEFGHSINDYSISPDGQFILLEYNYVKQWRHSYTASYDIYDLNKRQLITEERIPNNTQWVTWSPVGHKLAYVWNNDIYVKIEPNLPSYRITWTGKEDIIYNGITDWVYEEEVFSAYSALWWSPNGTFLAYAQFNDTEVPLIEYSFYSDESLQYPKTVRVPYPKAGAVNPTVKFFVVNTDSLSSVTNATSIQITAPASMLIGDHYLCDVTWATQERISLQWLRRIQNYSVMDICDYDESSGRWNCLVARQHIEMSTTGWVGRFRPSEPHFTLDGNSFYKIISNEEGYRHICYFQIDKKDCTFITKGTWEVIGIEALTSDYLYYISNEYKGMPGGRNLYKIQLSDYTKVTCLSCELNPERCQYYSVSFSKEAKYYQLRCSGPGLPLYTLHSSVNDKGLRVLEDNSALDKMLQNVQMPSKKLDFIILNETKFWYQMILPPHFDKSKKYPLLLDVYAGPCSQKADTVFRLNWATYLASTENIIVASFDGRGSGYQGDKIMHAINRRLGTFEVEDQIEAARQFSKMGFVDNKRIAIWGWSYGGYVTSMVLGSGSGVFKCGIAVAPVSRWEYYDSVYTERYMGLPTPEDNLDHYRNSTVMSRAENFKQVEYLLIHGTADDNVHFQQSAQISKALVDVGVDFQAMWYTDEDHGIASSTAHQHIYTHMSHFIKQCFSLP
modifications: bait human Fc-tagged dimer
B11: ADP150 (protein)
chain: MALQLWALTLLGLLGAGASLRPRKLDFFRSEKELNHLAVDEASGVVYLGAVNALYQLDAKLQLEQQVATGPALDNKKCTPPIEASQCHEAEMTDNVNQLLLLDPPRKRLVECGSLFKGICALRALSNISLRLFYEDGSGEKSFVASNDEGVATVGLVSSTGPGGDRVLFVGKGNGPHDNGIIVSTRLLDRTDSREAFEAYTDHATYKAGYLSTNTQQFVAAFEDGPYVFFVFNQQDKHPARNRTLLARMCREDPNYYSYLEMDLQCRDPDIHAAAFGTCLAASVAAPGSGRVLYAVFSRDSRSSGGPGAGLCLFPLDKVHAKMEANRNACYTGTREARDIFYKPFHGDIQCGGHAPGSSKSFPCGSEHLPYPLGSRDGLRGTAVLQRGGLNLTAVTVAAENNHTVAFLGTSDGRILKVYLTPDGTSSEYDSILVEINKRVKRDLVLSGDLGSLYAMTQDKVFRLPVQECLSYPTCTQCRDSQDPYCGWCVVEGRCTRKAECPRAEEASHWLWSRSKSCVAVTSAQPQNMSRRAQGEVQLTVSPLPALSEEDELLCLFGESPPHPARVEGEAVICNSPSSIPVTPPGQDHVAVTIQLLLRRGNIFLTSYQYPFYDCRQAMSLEENLPCISCVSNRWTCQWDLRYHECREASPNPEDGIVRAHMEDSCPQFLGPSPLVIPMNHETDVNFQGKNLDTVKGSSLHVGSDLLKFMEPVTMQESGTFAFRTPKLSHDANETLPLHLYVKSYGKNIDSKLHVTLYNCSFGRSDCSLCRAANPDYRCAWCGGQSRCVYEALCNTTSECPPPVITRIQPETGPLGGGIRITILGSNLGVQAGDIQRISVAGRNCSFQPERYSVSTRIVCVIEAAETPFTGGVEVDVFGKLGRSPPNVQFTFQQPKPLSVEPQQGPQAGGTTLTIHGTHLDTGSQEDVRVTLNGVPCKVTKFGAQLQCVTGPQATRGQMLLEVSYGGSPVPNPGIFFTYRENPVLRAFEPLRSFASGGRSINVTGQGFSLIQRFAMVVIAEPLQSWQPPREAESLQPMTVVGTDYVFHNDTKVVFLSPAVPEEPEAYNLTVLIEMDGHRALLRTEAGAFEYVPDPTFENFTGGVKKQVNKLIHARGTNLNKAMTLQEAEAFVGAERCTMKTLTETDLYCEPPEVQPPPKRRQKRDTTHNLPEFIVKFGSREWVLGRVEYDTRVSDVP
modifications: bait human Fc-tagged dimer
B12: ADP287 (protein)
chain: MANPGLGLLLALGLPFLLARWGRAWGQIQTTSANENSTVLPSSTSSSSDGNLRPEAITA
modifications: also: human Fc-tagged dimer
B13: ADP097 (protein)
chain: SPPRKREEAAAVPAAAPDDLALLKNLRSEEQKKKNRKKLSEKPKPNGRTVEVAEGEAVRTPQSVTAKQPPEIDKKNEKSKKNKKKSKSDAKAVQNSSRHDGKEVDEGAWETKISHREKRQQRKRDKVLTDSGSLDSTIPGIENTITVTTEQLTTASFPVGSKKNKGDSHLNVQVSNFKSGKGDSTLQVSSGLNENLTVNGGGWNEKSVKLSSQISAGEEKWNSVSPASAGKRKTEPSAWSQDTGDANTNGKDWGRSWSDRSIFSGIGSTAEPVSQSTTSDYQWDVSRNQPYIDDEWSGLNGLSSADPNSDWNAPAEEWGNWVDEERASLLKSQEPIPDDQKVSDDDKEKGEGALPTGKSKKKKKKKKKQGEDNSTAQDTEELEKEIREDLPVNTSKTRPKQEKAFSLKTISTSDPAEVLVKNSQPIKTLPPATSTEPSVILSKSDSDKSSSQVPPILQETDKSKSNTKQNSVPPSQTKSETSWESPKQIKKKKKARRET
modifications: bait human Fc-tagged dimer
B14: ADP348 (protein)
chain: MAASAGAGAVIAAPDSRRWLWSVLAAALGLLTAGVSALEVYTPKEIFVANGTQGKLTCKFKSTSTTGGLTSVSWSFQPEGADTTVSFFHYSQGQVYLGNYPPFKDRISWAGDLDKKDASINIENMQFIHNGTYICDVKNPPDIVVQPGHIRLYVVEKENLPVFP
modifications: bait human Fc-tagged dimer

Sequence of Circumsporozoite protein (CSP) (Q7K740 19-374): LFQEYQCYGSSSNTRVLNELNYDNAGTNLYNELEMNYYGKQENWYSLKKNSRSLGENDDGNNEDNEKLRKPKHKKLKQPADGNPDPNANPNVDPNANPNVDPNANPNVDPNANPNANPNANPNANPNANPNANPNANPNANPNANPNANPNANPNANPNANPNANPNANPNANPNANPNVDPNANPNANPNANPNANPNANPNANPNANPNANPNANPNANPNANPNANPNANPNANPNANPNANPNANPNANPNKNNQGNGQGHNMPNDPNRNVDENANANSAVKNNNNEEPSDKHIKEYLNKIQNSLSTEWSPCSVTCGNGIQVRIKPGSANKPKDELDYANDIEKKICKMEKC

The assay concerns the target Circumsporozoite protein (CSP) (Plasmodium falciparum (isolate 3D7), UniProt Q7K740). Briefly: AVEXIS screen signal:noise (double-corrected).
As for B1, the binding score was 0.919.

Turning to B2, the binding score was found to be 1.1.

Molecule B3 showed a binding score of 1.06.

B4 returned a binding score of 0.576.

As for B5, the binding score is 0.774.

For the molecule B6, the binding score was 1.58.

Molecule B7 yielded a binding score of 0.7.

For the molecule B8, the binding score turned out to be 3.25.

As to B9, the binding score stood at 0.882.

As for B10, the binding score is 0.756.

In the case of B11, the binding score was 0.742.

The molecule B12 gave a binding score of 1.47.

With B13, the binding score worked out at 1.17.

In turn, B14 had a binding score of 0.706.
